In the nanobody polyreactivity screen of Harvey et al. (2022):

Assay: yeast display, Sf9 membrane polyspecificity reagent, FACS + sequencing; frameworks hold sequencing errors
How it was run: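 Genes from sorted yeast were amplified by colony PCR, read by MiSeq 2 × 250 sequencing and filtered on CDR length. These cells carried a synthetic nanobody library in Saccharomyces cerevisiae BJ5465 and were sorted by FACS into low and high (top ~1%) gates on anti-HA and streptavidin fluorescence. Polyreactivity is labelled according to the gate of origin.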

Sequence	polyreactivity (PSR sort gate)
QDQLVESGGGLVQAGGSLRLSCAASGSISYYAMGWYRQAPGKERELVAAISSSGGSTYYADSVKGRFTISRDNAKNTVYLQMNSLKPEDTAVYYCAARYYGFPSKYDYWGQGTQVTVSS	high polyreactivity
QDQLVESGGGLVQAGGSLRLSCAASGSITAPYAMGWYRQAPGKERELVAAISYSGGSTNYADSVKGRFTISRDNAKNTVYLQMNSRKPEATAVYYCAARGYSGYRTSPLARYDYWGKGTQVTVSS	high polyreactivity
QDQLVESGGGLVQAGGSLRLSCAASGSSFLVYAMGWYRQATGKEREFVAAIRGGGSTNYADSVKGRFTISRDNAMNTVYLQMNSLKPEDTAVYYCAAYLLYTPSMDYWGQGTQVTVSS	low polyreactivity
QDQLVESGGGLVQAGGSLRLSCAASGSTFAYYAMGWYRQAPGKERELVAAITIDGRTSYADSVKGRFTISRDNAKNTVYLQMISLNQVDTAVYYCARGYFPYGYPWRWGYDRFDYWGQGTQVTVSS	low polyreactivity
QDQLVESGGGLVQAGGSLRLSCAASGSTFGYYAMGWYRQAPRKERELVAAISWRGGSTSYADSVKGRFTISRDNAKNTVYLQMNSLKPEDTAVYYCAAPRGTLTSWAGNYWGQGTQVTVSS	high polyreactivity
QDQLVESGGGLVQAGGSLRLSCAASGSTFKRYAMGWYSQAPGKVRELVAAISRRGGSTYYADSVKGRFTISRDNAKNTVYLQMNSLKPEDTAVYYCAARIASHHYYYWGQGTQVTVSS	high polyreactivity
QDQLVESGGGLVQAGGSLRLSCAASGSTFQENAMGWYRQAPGKEREFVAAISGSGGSTYYADSVKGRFTISRDNAKNSVYLQMNSLKPEDTAVYYCAAYVTGYVNTVGSGWLVWGVDFWGQGTQVTVSS	low polyreactivity
QDQLVESGGGLVQAGGSLRLSCAASGSTFRRYAIGWYRQAPGKERELVAAITSGGRTNYADSVKGRFTISRDNAKNTVYLQMNSLKPEDTAVYYCNAKAYKLGQSYWGYDYWGQGTQVTVSS	high polyreactivity
QDQLVESGGGLVQAGGSLRLSCAASGSTFTGYTMGWYRQAPGKERELVAAITYRGGSTYYADSVKGRFTISRDNAKNTVYLQMNSLKPEDTAVYYCAAVPEYYEYTPYDYWGQGTQVTVSS	low polyreactivity
QDQLVESGGGLVQAGGSLRLSCAASRITIYRYVMGWYRQAPGKERELVAAITSAGSTNYADSVKGRFTISRDHAKTTVYLQMNSLKPEDTAVYYCNADYKGYVRPYVRIRYGYWGQGTQVTVSS	low polyreactivity
QDQLVESGGGLVQAGGSLRLSCAASVITFVRNAKGWYRQAPGKERELVAAMSGRGGITYYADSVKGRFTISRDNAKNTVYLQMNSLKPEDTAVYYCAASSAGSSYNYWGQGTQVTVSS	high polyreactivity
QDQLVESGGGLVQAGGSLRLSCAASVSTFRVYAMGWYRQAPGKERELVAAISSSGGITYYADSVKGRFTLSRDNAKNTVYLQMNSLKPEATAVYYCAKGTVIHVLYDYWGEGTQVTVSS	low polyreactivity
QDQLVESGGGLVQAGGSLRLSCAATASIFVTYAMGWYRQAPGQERELVAAINYSGGSTYYADSVKGRFTISRDNAKNTFYLQMNSLKPEDTAVNYCAADERVDQGWIRMDYWGQGTQVTVSS	low polyreactivity
QDQLVESGGGLVQAGGSLRLSCAATGFIIGWNTMGWYRPAPRKEREVVAAISSGGGSTYYADSVKGRFTISRDNAKNNVYLQMNSLKPEDTAVFYCNAVSFKHVYHTDTYGVNEFVYWGEGTQVTVSS	high polyreactivity
QDQLVESGGGLVQAGGSLRLSCAATGFTFYSYAMGWYRQAPGKERELVAGISRSGGSTYYADSVKGRFTISRDNGKNTVYLQMKSLKPVDTAVYYCNVGLRKKIQNSKYDYWGQGTQVTVSS	high polyreactivity
QDQLVESGGGLVQAGGSLRLSCAATGSTFPSNAMGWYRQAPGKEREFVATIRFSGGSTYYADSVKGRFTISRVNAKNTVDLQMNSLKPEDTAVYYCAARFYSSAYWYDYWGQGTQVTVSS	high polyreactivity
QDQLVESGGGLVQAGGSLRLSCAATGSTYYGYVMGWYRKAPGKETELVAAINLRGDRTYYADSVKGRFTISRDNAKNTVYLQMNSLKPEESSVYYCAARVMFYNSIKRYSWGQGTQVTGSS	high polyreactivity
QDQLVESGGGLVQAGGSLRLSCAAYGSTSYTNAMGWYRQAPGKERELVAGITRSGDSTYYADSVKGRFTISRDTAKNTVYLQMKSLKPEDTAVYYCAADIGDYWLGYYTGYYYLGQGTQVTVSS	high polyreactivity
QDQLVESGGGLVQAGGSLRLSCADSGITFSVYAMGWYRQAPGKERELVAAISWNGGRTYYADSVKGRFTISRDNAKNTVYLQMNSLKPEDTAVYYCAAQPWIFSSRLVWTRGYGYWGQGTQVTVSS	high polyreactivity
QDQLVESGGGLVQAGGSLRLSCADSGSNFKYNAMGWYRPAPGKERELVAAISTRGSTTNYADSVKGRFTISRDNAKNTVYLQMNSLKPEDTAVYDCNKYANRRDRTRGADYDYWGQGTQVTVSS	high polyreactivity
QDQLVESGGGLVQAGGSLRLSCASSGSIFSYNAMGWYRQAPGKEMELVAAISRGGSTYYADSVKGRFTISRDNAKNTVYLQMNSLKPDDTAVYYCAAYVYQLSYPAFEEGYWGQGTQVTVSS	low polyreactivity
QDQLVESGGGLVQAGGSLRLSCASSGSTFYYKAMGWSRQEPGKERELVARISRSGGSTYADSVKGRFTISRDNAKYTVYLQMNSLKPEDTAVYYCNADAYGTPEFTSYAVRYDYWGQGTQVTVSS	low polyreactivity

Sequence	polyreactivity (PSR sort gate)
QDQLVESGGGLVQAGGSLRLSCASYGSTFGANAMGWYRQAHGKARELVATISSGGRTYYADSVKGRFTISRDNAKITVYLQMNSLKPEDTAVYYCNAGADYTYVYISVYVLYDYLGQGTQVTVSS	low polyreactivity
QDQLVESGGGLVQAGGSLRLSCDASGSIFKSYAMGWFRQAPGKERELVASITYGGGRTYYADSVKGRFTISRDNAKNTVYLQMNSLKPEDTAVYYCATRLFGRSGMYYLRYDYWGQGTQVTVSS	high polyreactivity
QDQLVESGGGLVQAGGSLRLSCDASGSIFSPYAMGWYRQAPGKEREFVAAITYSGGRTYYADSVKGRFTISRDNPKNTVYFQMNSLKPEDTAVYYCAATYSSYDHYWFVYWGQATQVTVSS	low polyreactivity
QDQLVESGGGLVQAGGSLRLSFAASGRTFDRNTMGWYRQAPGKERELVAAISSSGGSTYYADSVKGRFTISRDNAKNTVYLEMNSLIPEDTAVYYCAVLSRQYFRYGYDYCGQGTQVTVSS	high polyreactivity
QDQLVESGGGLVQAGGSLRLSGAASGRTFLGYAMGCYRQAPGKERALVAAITWRGGITYYADSVKGRFTISRDNAKNTVYLQMNSLKPEDTAVYYCAARKVGNRYTYYWGQGTQVTVSS	high polyreactivity
QDQLVESGGGLVQAGGSLRLSSAASGSTFDSNAMAWYRQAPGKERELVAAISSSGGRTSYADSVKGRFTISRDNAKNTVYLQMNSLKPEDTAVYYCADRFKSVDYVQYYYWGQGTQVTVSS	low polyreactivity
QDQLVESGGGLVQAGGSLRLTCAASGRTFTHYAMGWYRQAPVKERELVAAISRSGGTTYYADSVKGRFTISLDNAKNTVYLQMNSRKPEDTAVYYCAARWWYRYNYDYWGQGTHVTVSS	high polyreactivity
QDQLVESGGGLVQAGGSLRLTCAASGSIFGWYAMGWYRQAPGKEMELFAAITNSGGSTYYADSVKGRFTISRDNAKKTVYIQMNSLKPEETAVYYCAAESWIRRWYGGGKKYDYWGQGTQVTVSS	high polyreactivity
QDQLVESGGGLVQAGGSLRLTCAASGSTFTTNVMGWYRQAPGKERDLVAAISWSSGSTYYADSVKGRFTISRDNAKNTVYLQMKSLKPEDTAVYYCAARLVIFYPYSRYYYWGQGTHVTVSS	high polyreactivity
QDQLVESGGGLVQAGGSLSLSCAASGRIFYWYVIGWYRQAPGKEREYVASISWSGGSTYYADSVKGRFTISRDNAKNTVYLQMNSLKPEDTAVYYCNAGSVYTVSLTGHPYDYWGQGTQVTVSS	low polyreactivity
QDQLVESGGGLVQAGGSLSLSCAASGRIYRYYAMGWSRQAPGKERELVADISSGDSTYYADSVKGRFTMSRDNAKNTVYLQMNSLKPEDTAVYNCNADVYSWVSGKEGDYWGQGTQVTVSS	low polyreactivity
QDQLVESGGGLVQAGGTLRLSCAASGRTFYLYAMAWYRQAPGKERELVAAISSGASTYYADSVKGSFTISRDIAKNTVYLQMNSLKPDDTAVYYCAAEFCPQWSGYEYWGQGTLVTVSS	high polyreactivity
QDQLVESGGGLVQAGRSLRLSCAASGRIIKLYAMGWYRQAPGKERELVAAISKSGGNTYADSVKGRFTISRDNAKNTVYLQMNSLKPEDTAVYYCAASVQSTSDPFDYWGQGTQVTVSS	low polyreactivity
QDQLVESGGGLVQAGRSLRLSCAASGYTFRFNAMGWYRQAPGKEREFVAAIDFGGAGTYYADSVKGRFTISRDNAKNTVSLQMNSLKPEDTAVYYCNARDGVTTEFDYWGQGTQVNVSS	low polyreactivity
QDQLVESGGGLVQAGVSLRLSCAASGSIIGSYAMGWYREAPAKERELVAAITRSGSRTYYADSVKGRFTISRDNAKNTVYLQINSLKPEDTAVYYCATGYPGGFDYWGLGTQVTVSS	high polyreactivity
QDQLVESGGGLVQARGSLRLSCAASGRIIKRYVMGWYRQAPGTERELVAAITSGGTNYADSVKGRFTISRDNAKNTVYLQMNSRKPEDTAVYSCAARYLYRAGSNYWGQGTQVTVSS	high polyreactivity
QDQLVESGGGLVQARGSLRLSCASSGSICDHYVMGWYRQAPGKERELVAAITSGDRTNYADSVKGRFTISRDKAKNTVYLQMNSLTPEDTEGYYCNADYQSYFYYTTWYYDYDYWGKGTQVTVSS	low polyreactivity
QDQLVESGGGLVQAVGSLRLSCAASGSIFDVNALGWYRQAPGKERELVAAISQRGTRTYYADSVKGRFTISRDNAKNTVYLQMNSLKPEDTAVYYCNRGGWRQYDSWGQGTQVTVSS	high polyreactivity
QDQLVESGGRLVQAVGSLRLTCAASGRIFRGNGLGWYRQAPGKARELVASISSGGRTNYADSVKGRFTISRDNAKNTVYLQMNSLKPEDTAVYYCSATKSPSLYRWLYDYWGQGTQVTVSS	high polyreactivity
QDQLVESGRGLFQAGGSLRLSCAASGSTLWANAMGWYRQAPGKERELVAAISWRGGRTYYADSVKGRFTISRDNAKNTVYLQMNSLKPEVTAVYYCNAVSYYRPRTDYWGQGTLVTVSS	high polyreactivity
QDQLVESGRGLVQAGGSLRLSCAASGFIFYQNAMGWYRQAPGKERELVAAISWRSGRTYYADSVKGRFTISRDNAKNTVYLQMNSLKPEDTAVYYCNAVRYPSYSPEYGSWGQGTEVTVSS	high polyreactivity
